Experiments:
[1] = target: Loa22 of L. borgpetersenii sv. Ballum str. M2, endogenous (Leptospira borgpetersenii sv. Ballum str. M2 (endogenous in cultivated cells)); experiment: SDS-PAGE and immunoblot of whole cell lysates; Leptospira cells in SDS-PAGE buffer (4% SDS, 2% β-ME), sonicated and heated (10 min, 99 °C); blot screened with anti-Loa22_(27-197) antiserum; oligomer read from the size of the bands
[2] = target: Loa22 of L. interrogans sv. Canicola str. Kito, endogenous (Leptospira interrogans sv. Canicola str. Kito (endogenous in cultivated cells)); experiment: as above
[3] = target: Loa22 of L. interrogans sv. Copenhageni str. Fiocruz L1-130, endogenous (Leptospira interrogans sv. Copenhageni str. Fiocruz L1-130 (endogenous in cultivated cells)); experiment: as above
[4] = target: Loa22 of L. interrogans sv. Pomona str. LC82-25, endogenous (Leptospira interrogans sv. Pomona str. LC82-25 (endogenous in cultivated cells)); experiment: as above
[5] = target: Loa22 of L. kirschneri sv. Grippotyphosa str. RM52, endogenous (Leptospira kirschneri sv. Grippotyphosa str. RM52 (endogenous in cultivated cells)); experiment: as above
[6] = target: Loa22 of L. noguchii sv. Autumnalis str. Bonito, endogenous (Leptospira noguchii sv. Autumnalis str. Bonito (endogenous in cultivated cells)); experiment: as above
[7] = SEC; TSKgel G4000SWXL column, PBS as mobile phase, 1.0 mL/min; 50 µg recombinant protein injected (25 µL); MW from a standard curve of globular proteins; fractions checked by SDS-PAGE and immunoblot with anti-Loa22_(27-197) antiserum
[8] = target: recombinant Loa22_(27-197) (Leptospira OmpA-like 22 kDa protein) of L. interrogans sv. Copenhageni str. Fiocruz L1-130 (Leptospira interrogans sv. Copenhageni str. Fiocruz L1-130); experiment: as above

Substance “Loa22 of L. borgpetersenii sv. Ballum str. M2, endogenous (natural protein)” has a stoichiometry N [1] of 3.

“Loa22 of L. interrogans sv. Canicola str. Kito, endogenous (natural protein)” gave a stoichiometry N [2] of 3.

For “Loa22 of L. interrogans sv. Copenhageni str. Fiocruz L1-130, endogenous (natural protein)”, the stoichiometry N [3] was 3.

In the case of “Loa22 of L. interrogans sv. Pomona str. LC82-25, endogenous (natural protein)”, the stoichiometry N [4] was 3.

In the case of “Loa22 of L. kirschneri sv. Grippotyphosa str. RM52, endogenous (natural protein)”, the stoichiometry N [5] was 3.

With “Loa22 of L. noguchii sv. Autumnalis str. Bonito, endogenous (natural protein)” the stoichiometry N [6] was 3.

With “recombinant Loa22_(27-197) (Leptospira OmpA-like 22 kDa protein) of L. interrogans sv. Copenhageni str. Fiocruz L1-130” the “percent of the protein as monomer (area under the SEC peaks)” value [7] was “a majority of the recombinant protein exists as a monomer (89% of the total)”.

“recombinant Loa22_(27-197) (Leptospira OmpA-like 22 kDa protein) of L. interrogans sv. Copenhageni str. Fiocruz L1-130 (domain or fragment)” gave a stoichiometry N [8] of 3.

From article PMC10506094
